Reference: the supplement of paper PMC11780869

Test system: Bacillus subtilis
Assay: cleaved RNA product abundance (RNA/gDNA barcode ratio) relative to median wild-type variant (ratio to wild type); higher = more accumulation of the downstream cleavage product
Details: cleavage site: cggR-gapA (positions -7 to +36 mutated)
Protocol: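 MPRA in B. subtilis. Mutagenized RNase Y cleavage-site regions (9% mutation rate) were inserted into a barcoded reporter mRNA (truncated aprE or tetM). Cells were grown in LB at 37°C to OD600 0.3. The cleaved RNA isoform was gel-purified and its barcodes counted; the RNA:gDNA barcode ratio was normalised to the median wild-type variant, and the median over barcodes is reported per variant. The printed sequence is the variable window only; the reporter flanks are not printed.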

[1] = experiment (reporter, strain, medium): exp 2b: truncated aprE reporter, strain BJT200
[2] = experiment (reporter, strain, medium): exp 4a: truncated aprE reporter, strain BJT201 with 2% xylose (RNase J1 expressed)

Row | Sequence | cleaved RNA product abundance [1] | cleaved RNA product abundance [2]
1 | ACAGACGAAGGAGCCGCAAAGAAGATATTAAGGGATGAATAATCCCTCAATATAAATGTCTCTCACTTATTTAAA | 0.338 | 0.393
2 | ACAGACGAAGGAGCCGCAAAGAAGATATTAAGGGATGAATAATCCCTCAATTTAAATATCTCTCACTTATTTAAA | 0.157 | –
3 | ACAGACGAAGGAGCCGCAAAGAAGATATTAAGGGATGAATAATCCCTCACTATAAATATCTCTCACTTATTTAAA | 0.149 | –
4 | ACAGACGAAGGAGCCGCAAAGAAGATATTAAGGGATGAATAATCCCTCTATATAAATATCTCTCACTTATTTAAA | 0.362 | 0.406
5 | ACAGACGAAGGAGCCGCAAAGAAGATATTAAGGGATGAATAATCCCTGAATATAAATATCTCTCACTTATTTAAA | – | 0.583
6 | ACAGACGAAGGAGCCGCAAAGAAGATATTAAGGGATGAATAATCCCTTAATATAAATATCTCTCACTTATTTAAA | – | 0.192
7 | ACAGACGAAGGAGCCGCAAAGAAGATATTAAGGGATGAATAATCCGTCAATATAAATATCTCTCACTTATTTAAA | – | 0.239
8 | ACAGACGAAGGAGCCGCAAAGAAGATATTAAGGGATGAATAATCCTTCAATATAAATATCTCTCACTTATTTAAA | – | 0.762
9 | ACAGACGAAGGAGCCGCAAAGAAGATATTAAGGGATGAATAATCGCTCAATATAAATATCTCTCACTTATTTAAA | – | 0.228
10 | ACAGACGAAGGAGCCGCAAAGAAGATATTAAGGGATGAATAATTCCTCAATATAAATATCTCTCACTTATTTAAA | – | 1.05
11 | ACAGACGAAGGAGCCGCAAAGAAGATATTAAGGGATGAATGATCCCTCAATATAAATATCTCTCACTTATTTAAA | – | 0.565
12 | ACAGACGAAGGAGCCGCAAAGAAGATATTAAGGGATGAATTATCCCTCAATATAAATATCTCTCACTTATTTAAA | – | 0.572
13 | ACAGACGAAGGAGCCGCAAAGAAGATATTAAGGGATGATTAATCCCTCAATATAAATATCTCTCACTTATTTAAA | – | 0.803
14 | ACAGACGAAGGAGCCGCAAAGAAGATATTAAGGGATGTATAATCCCTCAATATAAATATCTCTCACTTATTTAAA | – | 0.603
15 | ACAGACGAAGGAGCCGCAAAGAAGATATTAAGGGATTAATAATCCCTCAATATAAATATCTCTCACTTATTTAAA | – | 0.608
16 | ACAGACGAAGGAGCCGCAAAGAAGATATTAAGGGTTGAATAATCCCTCAATATAAATATCTCTCACTTATTTAAA | 0.43 | –
17 | ACAGACGAAGGAGCCGCAAAGAAGATATTAAGGTATGAATAATCCCTCAATATAAATATCTCTCACTTATTTAAA | 0.104 | 0.117
18 | ACAGACGAAGGAGCCGCAAAGAAGATATTAAGGTATGAATAATCTCTCAATATAAATATCTCTCACTTATTTAAA | 0.105 | –
19 | ACAGACGAAGGAGCCGCAAAGAAGATATTAAGTGATGAATAATCCCTCAATATAAATATCTCTCACTTATTTAAA | 0.103 | 0.137
20 | ACAGACGAAGGAGCCGCAAAGAAGATATTAATGGATGAATAATCCCTCAATATAAATATCTCTCACTTATTTAAA | 0.132 | 0.173
21 | ACAGACGAAGGAGCCGCAAAGAAGATATTACGGGATGAATAATCCCTCAATATAAATATCTCTCACTTATTTAAA | 0.409 | 0.351

Row | Sequence | cleaved RNA product abundance [1] | cleaved RNA product abundance [2]
22 | ACAGACGAAGGAGCCGCAAAGAAGATCTTAAGGGATGAATAATCCCTCAATATAAATATCTCTCACTTATTTAAA | – | 0.166
23 | ACAGACGAAGGAGCCGCAAAGAAGATGTTAAGGGATGAATAATCCCTCAATATAAATATCTCTCACTTATTTAAA | 0.513 | 0.741
24 | ACAGACGAAGGAGCCGCAAAGAAGATTTTAAGGCATGAATAATCCCTCAATATAAATATCTCTCACTTATTTAAA | – | 0.143
25 | ACAGACGAAGGAGCCGCAAAGAAGCTAATAAGGGATGAATAATCCCTCAATATAAATATCTCTCACTTATTTAAA | 0.247 | 0.286
26 | ACAGACGAAGGAGCCGCAAAGAAGCTATAAAGGGATGAATAATCCCTCAATATAAATATCTCTCACTTATTTAAA | 0.272 | 0.357
27 | ACAGACGAAGGAGCCGCAAAGAAGCTATTAAAGGATGAATAATCCCTCAATATAAATATCTCTCACTTATTTAAA | 0.111 | 0.144
28 | ACAGACGAAGGAGCCGCAAAGAAGCTATTAAGAGATGAATAATCCCTCAATATAAATATCTCTCACTTATTTAAA | 0.0974 | 0.123
29 | ACAGACGAAGGAGCCGCAAAGAAGCTATTAAGCGATGAATAATCCCTCAATATAAATATCTCTCACTTATTTAAA | – | 0.0691
30 | ACAGACGAAGGAGCCGCAAAGAAGCTATTAAGGAATGAATAATCCCTCAATATAAATATCTCTCACTTATTTAAA | 0.108 | 0.101
31 | ACAGACGAAGGAGCCGCAAAGAAGCTATTAAGGCATGAATAATCCCTCAATATAAATATCTCTCACTTATTTAAA | 0.0626 | –
32 | ACAGACGAAGGAGCCGCAAAGAAGCTATTAAGGGAAGAATAATCCCTCAATATAAATATCTCTCACTTATTTAAA | 0.265 | 0.4
33 | ACAGACGAAGGAGCCGCAAAGAAGCTATTAAGGGACGAATAATCCCTCAATATAAATATCTCTCACTTATTTAAA | – | 0.436
34 | ACAGACGAAGGAGCCGCAAAGAAGCTATTAAGGGAGGAATAATCCCTCAATATAAATATCTCTCACTTATTTAAA | 0.287 | 0.24
35 | ACAGACGAAGGAGCCGCAAAGAAGCTATTAAGGGATAAATAATCCCTCAATATAAATATCTCTCACTTATTTAAA | 0.479 | –
36 | ACAGACGAAGGAGCCGCAAAGAAGCTATTAAGGGATCAATAATCCCTCAATATAAATATCTCTCACTTATTTAAA | – | 0.425
37 | ACAGACGAAGGAGCCGCAAAGAAGCTATTAAGGGATGAAAAATCCCTCAATATAAATATCTCTCACTTATTTAAA | 0.391 | 0.491
38 | ACAGACGAAGGAGCCGCAAAGAAGCTATTAAGGGATGAACAATCCCTCAATATAAATATCTCTCACTTATTTAAA | – | 0.568
39 | ACAGACGAAGGAGCCGCAAAGAAGCTATTAAGGGATGAATAATACCTCAATATAAATATCTCTCACTTATTTAAA | 0.0928 | –
40 | ACAGACGAAGGAGCCGCAAAGAAGCTATTAAGGGATGAATAATCCCTAAATATAAATATCTCTCACTTATTTAAA | 0.346 | 0.407
41 | ACAGACGAAGGAGCCGCAAAGAAGCTATTAAGGGATGAATAATCCCTCAATATAAAAATCTCTCACTTATTTAAA | – | 0.713
